Laboratory results reported in the nanobody polyreactivity screen of Harvey et al. (2022).

Experiment: yeast display, Sf9 membrane polyspecificity reagent, FACS + sequencing; frameworks hold sequencing errors
Summary of the method: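 Galactose-induced (36–48 hours) yeast carrying a synthetic nanobody display library were exposed to 10% biotinylated, detergent-solubilized Sf9 membrane reagent at 4 °C for 1 hour. FACS followed streptavidin microbead enrichment, using low and high (top ~1%) gates for expression (anti-HA) and reagent binding (streptavidin). Colony PCR, MiSeq 2 × 250 sequencing and CDR-length filtering followed. Labels for polyreactivity reflect the gate of origin.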

| Sequence | polyreactivity (PSR sort gate) |
| --- | --- |
| QVQLVESGGGLVQAGGSLRLSCAASGSIYPGNAMGWYRQAPGKERELVAVIDFSGASTYYADSVKGRFTISRDNAKNTVYLQMNSLKPEDTADYWGQGTQVTVSS | low polyreactivity |
| QVQLVESGGGLVQAGGSLRLSCAASGSIYVPNDMGWYRQAPGKEREFVAAITESDGSTYYADSVKGRFTISRDNAKNTVYLQMNSLKPEDTAVYYCATDSTGVTIVHFDYWGQGTQVTVSS | low polyreactivity |
| QVQLVESGGGLVQAGGSLRLSCAASGSIYVSYAMGWYRQAPGKERELVATITTSTGSTYADSVKGRFTISRDNAKNTVYLQMNSLKPEDTAVYYCAARYQPWLNDDFDSWGQGTQVTVSS | low polyreactivity |
| QVQLVESGGGLVQAGGSLRLSCAASGSIYVYYAKGWYRQAPGKERYLVAAINTSGGSTYYADSVKGRFTISRDNAKNTVYLQMNSLKPEDTAVYYCAATPFASPRLHSFVVSYRYYYWGQGTQVTVSS | low polyreactivity |
| QVQLVESGGGLVQAGGSLRLSCAASGSIYYNAMGWYRQAPGKERELVAAISTSGGTTYYADSVKGRFTISRDNAKNTVYLQMNSLKPEDTAVYYCNARPSRRGAFDYWGQGTQVTVSS | high polyreactivity |
| QVQLVESGGGLVQAGGSLRLSCAASGSLFGANAMGWYRQAPGKERELVAAISSNGDDTYADSVKGRFTISRDNAKNTVYLQMNSLKPEDTAVYYCNKRPWWWGGDDYWGQGTQVTVSS | low polyreactivity |
| QVQLVESGGGLVQAGGSLRLSCAASGSLFPHYAMGWNRQAPGKEREFVATISGSTGRTYYADSVKGRFTISRDNAKNTVYLQMNSLKPEDTAVYYCATSVGYYLPPIKYDYWGQGTQVTVSS | low polyreactivity |
| QVQLVESGGGLVQAGGSLRLSCAASGSLFRSYAMGWYRQAPGKERELVAAISTRVVNTYYADSVKGRFTISRDNAKNTVYLQMNSLKPEDTAVYYCAALRYRITNVYYWGQGTQVTVSS | high polyreactivity |
| QVQLVESGGGLVQAGGSLRLSCAASGSLFYNNAKGWYRQAPGKERELVAAIRSTGTRTYYADSVKGRFTISRDTAKNTVYLQMNSLKPEDTAVYYCAVGDYGLWSYDYWGQGSQVTVSS | low polyreactivity |
| QVQLVESGGGLVQAGGSLRLSCAASGSMFITYTMGWYRQAPGKERELVAAITWDGGSTYYADSVKGRFTISRDNAKNTVYLQMNSLKPEDTAVYYCAKDVILVWPYATGRDYWGQGTQVTVSS | low polyreactivity |
| QVQLVESGGGLVQAGGSLRLSCAASGSNFAGYAMGWYRPAPGKERALGAAISWSGGSTYYADSVKGRFTISRDNAKNTVYLQINSLKPEDTAVYYCNALRYGWKYNYWGQGTQVTVSS | high polyreactivity |
| QVQLVESGGGLVQAGGSLRLSCAASGSNFDAYAIGWYRQAPGKERELVASISIGGSTNYADSVKGRFTISRDNAKNTVYLQMNSLKPEDSAVYYCAAYVYYTYPSGTVYSVSYIYDYWGQGTQVTVSS | low polyreactivity |
| QVQLVESGGGLVQAGGSLRLSCAASGSNFFSNAMGWYRQAPGKERELVAAITSTGGSTYYADSVKGRFTISRDNAKNTVYLQMNSLKPEVTAVYYCAAASRRGYYYWGQGTQVTVSS | high polyreactivity |
| QVQLVESGGGLVQAGGSLRLSCAASGSNFFVYAMGWYRQAPGKERELVASIRWRGSSTYYADSVKGRFTISRDNAKNPVYLQMNSLKPEDTAVYDCAATSYNGYGYWGQGTQVTVSS | high polyreactivity |
| QVQLVESGGGLVQAGGSLRLSCAASGSNFGYNAIGWYRKAPGKEREFVAGISWSGGRTYYADSEKGRFTISRDNAKNTVYLQMNSLKPEDTAVYYCAAPSRPAPRFDYWGQGTQVTVSS | low polyreactivity |
| QVQLVESGGGLVQAGGSLRLSCAASGSNFHYNAMGWYRQAPGKERELVAAIRWGGGSTFYADSVKGRFTISRDNAKNTVYLQMNSLKPEDTAVYYCAADYWYETRDFTFFDLYVSYEYWGQGTQVTVSS | low polyreactivity |
| QVQLVESGGGLVQAGGSLRLSCAASGSNFIWYVMGWYRQAPGKEREFVAAINWRGTSTYYADSVKGRFTISRDNAKNTVYLQMNSLKPEDTAVYYCAARVTYRGRAYDYWGQGTQVTVSS | high polyreactivity |
